Experimental findings from patent publication US20090202547A1 (FIBRON, published 2009) are described below.

One may read the koff as a measure of how fast the partners let go of each other. A higher koff goes with a short-lived complex. By Kd is commonly meant the free concentration of one partner at which half of the binding sites on the other are occupied at equilibrium, for simple one-to-one binding.

In test [1] the target is T1, FR3exFc (human).
T1 construct: also called FGFR3/Fc; FR3/Fc
Put plainly: BIACORE. As to the method:
(§1) The affinity measurements were performed by BIACORE® analysis according to the standard procedure recommended by the supplier (Pharmacia). The anti-Fc antibody was coupled via the EDC/NHS chemistry to the chip and subsequently FGFR3 was captured. The Fabs of the invention were then bound to this surface.

The target of test [2] is T1, FR3exFc. Put plainly: BIACORE, FGFR3 captured on an anti-Fc chip. As to the method: as §1
Test [3] concerns the target T2, FGFR3 (wild type) on cells (human, UniProt P22607 23-806).
T2 construct: also called FDCP-FR3; FDCP-FGFR3
Briefly: indirect FACS-Scatchard.

The target in test [4] is T2, FGFR3 (wild type) on cells. Put plainly: FACS. (In general: In flow cytometry, cells or beads pass a laser one at a time.)
Test [5] concerns the target T2, FGFR3 (wild type) on cells. Briefly: cell-based or functional assay.
For test [6], the target named is T2, FGFR3 (wild type) on cells. Put plainly: cell-based or functional assay. This is another data set of the same source.
Test [7] addresses T1, FR3exFc. Put plainly: BIACORE, FGFR3 captured on an anti-Fc chip. As to the method: as §1
The source holds these as a separate data set. Background: SPR reads the build-up and loss of mass on a sensor chip optically.

Test [8] concerns the target T2, FGFR3 (wild type) on cells. Put plainly: cell-based or functional assay. The source holds these as a separate data set.
Test [9] concerns the target T1, FR3exFc. Briefly: BIAcore; number in parentheses taken as the monomeric Fab; monomeric Fab, not miniantibody.
The target in test [10] is T1, FR3exFc. Put plainly: ELISA, FGFR3/Fc anchored on anti-human Fc coated wells, about 5 µg Fab per well (labelled with cold iodine at 0.04 mM NaI), detection with anti-human Fab; parallel wells without FR3/Fc. As to the method:
To determine the effect of iodination on Fab activity, 50 μg of MSPRO29 was first labeled with cold iodine using Pierce IodoGen coated tubes. The process was carried out either without iodine, with 0.04 mM NaI (low I) or with 1 mM NaI (high I). MSPRO29 was then purified through a SEPHADEX® G-50 column. The ability of the modified Fab to bind FGFR3 was determined by ELISA. MAXISORP® wells were coated with anti-human Fc. FGFR3/Fc was then anchored to the wells. In parallel, a similar set of wells was left in blocking buffer only (no FR3/Fc, hatched bars). The unmodified (no I) or the modified MSPRO29 (low or high, 2 G-50 fractions each, 1 and 2) were added at approximately 5 μg/well and binding was measured with anti-human Fab. Fresh MSPRO29 and buffer alone were included as controls (FIG. 14: FGFR3/Fc, checkered bars; no FGFR3/Fc, hatched bars). MS-PRO29 was labeled with 1 mCi ¹²⁵I. The specific activity of the Fab was 17 μCi/μg.

For test [11], the target named is T1, FR3exFc. Briefly: BIAcore; number in parentheses taken as the monomeric Fab; monomeric Fab, value in parentheses of Table 1E (Tables 1C and 5 give 9 nM).
In a further test the target is T3, hFR3^D2Fc (human, UniProt P22607 143-250).
T3 construct: Only domain 2 of the entry stood in the assay; also called product of pChFR3^D2Fc; not shown: human Fc
T3 sequence: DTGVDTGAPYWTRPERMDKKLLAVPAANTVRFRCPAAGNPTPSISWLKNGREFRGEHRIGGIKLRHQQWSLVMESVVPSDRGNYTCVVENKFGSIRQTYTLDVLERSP
Put plainly: ELISA, Fc fusion anchored on an anti-human Fc coated plate, bound Fab detected with HRP anti-human Fab. The source says: Constructs comprising cDNAs that code for segments of the extracellular domain of FGFR3 were generated (FIG. 10). D2 comprises Ig domain 2, D2-3 comprises Ig domains 2 and 3, and D1-3 comprises Ig domains 1, 2 and 3. These constructs include pChFR3^D2Fc that codes for Ig-like domain 2 of FGFR3 and pChFR3^{D2,3}Fc that codes for domain 2 and 3, both as human Fc fusions. The corresponding chimeric proteins, as well as the control hFR3exFc (containing domains 1, 2 and 3) were anchored to an ELISA plate coated with a human Fc antibody. A panel of 8 best Fabs, MSPRO2, 11, 12, 21, 24, 26, 28 and 29, were added, and bound Fab was determined with HRP-α human Fab (FIG. 11). […] Both bind to the Ig like domain 2 while the others require domain 3 for binding. It was then tested whether or not Fabs that belong to the second group would distinguish the FGFR3IIIc isoform from the FGFRIIIb from. FDCP-FR3IIIb or FDCP-FR3IIIc cells were incubated in the presence of 1.25 ng/ml FGF9 with increasing doses of either MSPRO12 or MSPRO29. Ly6.3 was included as control. After 2 days in culture, cell proliferation was measured with the XTT reagent. Clearly, MSPRO29 (open triangle) was completely ineffective against the IIIb isoform (FIG. 12).
Background: In an ELISA, binding on a coated surface is turned into a signal by an enzyme label.

Test [12] has as its target T2, FGFR3 (wild type) on cells. Briefly: indirect FACS-Scatchard; indirect FACS-Scatchard, Table 5 (Table 1C gives 1.1 nM).

T2 sequence (P22607 23-806 limits assumed): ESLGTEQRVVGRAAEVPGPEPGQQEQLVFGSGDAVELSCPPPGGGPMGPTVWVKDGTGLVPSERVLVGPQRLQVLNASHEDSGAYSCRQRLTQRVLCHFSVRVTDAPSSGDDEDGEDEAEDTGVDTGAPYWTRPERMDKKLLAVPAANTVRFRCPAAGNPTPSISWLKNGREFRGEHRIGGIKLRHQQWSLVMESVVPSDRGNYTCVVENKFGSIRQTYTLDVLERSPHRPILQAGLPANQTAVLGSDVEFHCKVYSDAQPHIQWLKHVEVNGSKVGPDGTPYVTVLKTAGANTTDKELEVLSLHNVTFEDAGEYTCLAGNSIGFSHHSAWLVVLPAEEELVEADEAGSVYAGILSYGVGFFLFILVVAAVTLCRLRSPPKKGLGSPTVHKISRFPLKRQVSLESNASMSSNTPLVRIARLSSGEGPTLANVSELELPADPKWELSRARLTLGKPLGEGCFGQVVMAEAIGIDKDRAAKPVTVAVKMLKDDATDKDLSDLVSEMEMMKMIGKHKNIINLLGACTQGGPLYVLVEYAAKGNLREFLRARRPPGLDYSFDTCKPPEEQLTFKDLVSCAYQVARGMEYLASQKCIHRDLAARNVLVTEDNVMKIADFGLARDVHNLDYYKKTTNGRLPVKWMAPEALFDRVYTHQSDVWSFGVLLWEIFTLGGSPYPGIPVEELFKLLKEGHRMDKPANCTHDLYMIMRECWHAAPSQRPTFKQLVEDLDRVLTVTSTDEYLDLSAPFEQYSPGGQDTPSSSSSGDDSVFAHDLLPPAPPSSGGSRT
T1 sequence (chain, as listed by the source limits assumed): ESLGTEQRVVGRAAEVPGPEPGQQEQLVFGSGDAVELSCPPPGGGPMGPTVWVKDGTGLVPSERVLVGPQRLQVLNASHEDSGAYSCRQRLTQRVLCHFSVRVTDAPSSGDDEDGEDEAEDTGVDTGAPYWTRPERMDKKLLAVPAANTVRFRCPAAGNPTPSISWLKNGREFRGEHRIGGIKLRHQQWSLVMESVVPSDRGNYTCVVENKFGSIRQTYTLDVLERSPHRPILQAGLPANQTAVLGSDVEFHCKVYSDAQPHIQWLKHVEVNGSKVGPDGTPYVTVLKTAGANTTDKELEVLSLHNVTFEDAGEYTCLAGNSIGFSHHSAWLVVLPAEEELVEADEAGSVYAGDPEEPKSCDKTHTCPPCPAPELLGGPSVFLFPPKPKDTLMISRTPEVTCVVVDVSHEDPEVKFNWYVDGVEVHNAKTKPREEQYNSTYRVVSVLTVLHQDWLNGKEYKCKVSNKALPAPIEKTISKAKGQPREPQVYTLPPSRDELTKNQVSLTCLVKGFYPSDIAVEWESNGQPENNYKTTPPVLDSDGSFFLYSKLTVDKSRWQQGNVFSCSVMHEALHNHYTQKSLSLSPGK

B1: MSPRO2 (Fab, V domains shown)
VH: QVQLVQSGAEVKKPGASVKVSCKASGYTFTSYYMHWVRQAPGQGLEWMGWINPNSGGTNYAQKFQGRVTMTRDTSISTAYMELSSLRSEDTAVYYCARDFLGYEFDYWGQGTLVTVSS
VL: DIELTQPPSVSVAPGQTARISCSGDALGDKYASWYQQKPGQAPVLVIYDDSDRPSGIPERFSGSNSGNTATLTISGTQAEDEADYYCQSYDYSADYVFGGGTKLTVLG
On to B1, for which the koff in the test with FR3exFc [1] was found to be 0.02 s⁻¹. Besides, the dissociation constant Kd was found to be 37 nM with FR3exFc [2]; 43 nM in test [3]; 43 nM in test [4]; 37 nM with FR3exFc [7]; 37 nM with FR3exFc [9]. For the same molecule, the “IC50, FDCP-FGFR3 proliferation assay with FGF9, monomeric Fab (in parentheses)” value in test [5] is 360 nM. In addition, the “IC50 of inhibition of FDCP-FR3 proliferation with FGF9 (XTT)” value in test [6] is about 1 µg/mL. Moreover, in test [8], the “IC50 FR3 (FGF9), FDCP-FGFR3 proliferation assay” value stood at 360 nM.

B2: iodinated MSPRO29 (Fab, V domains shown)
VH: QVQLVQSGAEVKKPGASVKVSCKASGYTFTSYYMHWVRQAPGQGLEWMGWINPNSGGTNYAQKFQGRVTMTRDTSISTAYMELSSLRSEDTAVYYCARTWQYSYFYYLDGGYYFDIWGQGTLVTVSS
VL: DIVLTQSPATLSLSPGERATLSCRASQSVSSSYLAWYQQKPGQAPRLLIYGASSRATGVPARFSGSGSGTDFTLTISSLEPEDFATYYCQQTNNAPVTFGQGTKVEIKR
modifications: iodinated with IodoGen (cold NaI at 0.04 mM or 1 mM, or 125I); sites not stated
notes: MSPRO29 Fab after iodination; which preparation (low I, high I, 125I) is told in each row; also called modified MSPRO29 (low I; high I)
On to B2, for which the binding result with FR3exFc [10] is listed as “binds”.

B3: MSPRO21 (Fab, V domains shown)
VH: QVQLVQSGAEVKKPGSSVKVSCKASGGTFSSYAISWVRQAPGQGLEWMGGIIPIFGTANYAQKFQGRVTITADESTSTAYMELSSLRSEDTAVYYCARDNWFKPFSDVWGQGTLVTVSS
VL: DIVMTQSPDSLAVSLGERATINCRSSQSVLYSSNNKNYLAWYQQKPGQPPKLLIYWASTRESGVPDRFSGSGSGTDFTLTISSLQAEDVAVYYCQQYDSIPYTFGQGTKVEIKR
In the test with FR3exFc [1], B3 registered a koff of 0.0036 s⁻¹. Moreover, the Kd came to 9 nM with FR3exFc [2]; 1.1 nM in test [4]; 4.1 nM with FR3exFc [11]; 0.6 nM in test [12]; 9 nM with FR3exFc [7]. For the same molecule, the “IC50, FDCP-FGFR3 proliferation assay with FGF9, monomeric Fab (in parentheses)” value in test [5] amounted to 50 nM. Moreover, the binding result with hFR3^D2Fc is “no binding”. The “IC50 FR3 (FGF9), FDCP-FGFR3 proliferation assay” value in test [8] came to 50 nM.
